Test results taken from publication PMC9974998, “Structural mechanism for inhibition of PP2A-B56α and oncogenicity by CIP2A” (Nature Communications, 2023).
Values belong to the binder of their own block, whether it stands above or below them. No end group written: not given here. *: point of attachment. Biotin = O=C1N[C@H]2[C@H](CS[C@H]2CCCCC(=O)*)N1

B2: B56α (recombinant, WT) (natural protein)
chain: not shown
notes: PP2A regulatory subunit B56α; pGEX-B56α WT; also called B56α WT; source: E. coli BL21, purified (glutathione agarose, GST removed with AcTEV); not shown: GST, N-terminal, cleaved

How the values were obtained:
Settings in all cases: both partners purified
B56α (recombinant, WT) [1] = molecular target: B2; test: pull-down; competition: B56α pre-incubated with CIP2A peptide (aa.18-40) 30 min 37 °C, then GST-BubR1(647-720) 1 h 37 °C, 10 pmol each, glutathione bead pull-down, Western blot
GST-CIP2A(1-560) K8A = molecular target: T1, GST-CIP2A(1-560) K8A (human, UniProt Q8TCG1 1-560, K8A); test: pull-down; GST pull-down on glutathione agarose; 10 pmol of each protein in 150 µL 50 mM Tris HCl pH 7.5, 150 mM NaCl, 2 mM DTT, 0.2% Igepal, 10% glycerol, 1 h 37 °C; Western blot
T1 construct: CIP2A, human, residues 1-560, K8A; also called CIP2A(1-560) K8A mutant; source: E. coli BL21, purified (glutathione agarose); not shown: GST, N-terminal, kept

GST-CIP2A(1-560) [2] = molecular target: T2, GST-CIP2A(1-560) (human, UniProt Q8TCG1 1-560); test: pull-down; GST-CIP2A incubated with the pre-assembled PP2A-B56α holoenzyme (A-B56α-PP2Ac), glutathione beads; Coomassie gel and Western blot; CIP2A also titrated against equal molar amounts of PP2A proteins
T2 construct: CIP2A, human, residues 1-560; pGEX vector, thrombin-cleavable N-terminal GST; also called GST-tagged CIP2A(1-560) WT; GST-fused CIP2A(1-560); source: E. coli BL21, purified (glutathione agarose); not shown: GST, N-terminal, kept

CIP2A(1-560)V5 His = molecular target: T3, CIP2A(1-560)V5 His (human, UniProt Q8TCG1 1-560); test: pull-down; competition: GST-BubR1(647-720), B56α and CIP2A(1-560)V5, 10 pmol each, glutathione bead pull-down, B56α on BubR1 by Western blot
T3 construct: CIP2A, human, residues 1-560; also called V5-tagged recombinant CIP2A(1-560); source: recombinant

[3] = molecular target: T4, CIP2A(1-560) as used for XL-MS (human, UniProt Q8TCG1 1-560); test: cross-linking; XL-MS: CIP2A and B56α mixed 1:2, RT 60 min, about 0.5 mg/mL; DSS 100 or 500 µM (PBS pH 8.0, 2 mM DTT, 10% glycerol, 30 min 37 °C) or PDH + DMTMM (pH 7, 45 min 37 °C); LC-MS/MS, xQuest
T4 construct: CIP2A, human, residues 1-560; source: E. coli BL21, purified (glutathione agarose), dialysed into PBS pH 8, 2 mM DTT, 10% glycerol

GST-CIP2A(1-560) [4] = molecular target: T2, GST-CIP2A(1-560); test: pull-down; GST pull-down on glutathione agarose; 10 pmol of each protein in 150 µL 50 mM Tris HCl pH 7.5, 150 mM NaCl, 2 mM DTT, 0.2% Igepal, 10% glycerol, 1 h 37 °C; Western blot
B56α (recombinant, WT) [5] = molecular target: B2; test: cross-linking; XL-MS: CIP2A and B56α mixed 1:2, RT 60 min, about 0.5 mg/mL; DSS 100 or 500 µM (PBS pH 8.0, 2 mM DTT, 10% glycerol, 30 min 37 °C) or PDH + DMTMM (pH 7, 45 min 37 °C); LC-MS/MS, xQuest
B56α (recombinant, WT) [6] = molecular target: B2; test: pull-down; GST pull-down on glutathione agarose; 10 pmol of each protein in 150 µL 50 mM Tris HCl pH 7.5, 150 mM NaCl, 2 mM DTT, 0.2% Igepal, 10% glycerol, 1 h 37 °C; Western blot

B1: CIP2A peptide (aa18-40) (peptide)
peptide: Biotin-KAVKSEANATQLLRHLEVISGQK
notes: CIP2A, human, head domain residues 18-40; also called CIP2A N-terminal head peptide; CIP2A head peptide; source: synthetic peptide (Fmoc solid phase, HPLC purified, 87% purity)
- binding result (B56α (recombinant, WT) [1]): binds

Binder: B2
- binding result (GST-CIP2A(1-560) K8A): binds
- binding result (GST-CIP2A(1-560) [2]): binds
- binding result (CIP2A(1-560)V5 His): binds
- binding result [3]: binds

B4: CIP2A(1-330) as used for XL-MS (domain or fragment)
chain: not shown
notes: CIP2A, human, residues 1-330; also called CIP2A(1-330) fragment; source: E. coli BL21, purified (glutathione agarose), dialysed into PBS pH 8, 2 mM DTT, 10% glycerol
- binding result (B56α (recombinant, WT) [5]): binds

Now from value to binder:

- binding result (GST-CIP2A(1-560) [4]): binds
B3: B56α K181A/K217A/K227A (recombinant) (natural protein)
chain: not shown
notes: PP2A regulatory subunit B56α with K181A, K217A and K227A; also called B56α triple mutant

- binding result (GST-CIP2A(1-560) [4]): binds
B5: B56α Y215Q (natural protein)
chain: not shown
notes: PP2A regulatory subunit B56α with Y215Q; source: purified recombinant

- binding result (B56α (recombinant, WT) [6]): binds
B6: GST-CIP2A(1-330) A24E (domain or fragment)
chain: not shown
notes: CIP2A, human, residues 1-330, A24E; also called A24E mutant; source: E. coli BL21, purified (glutathione agarose); not shown: GST, N-terminal, kept
